Laboratory results from article PMC13096800.

Target: apoptosis-inducing factor, mitochondrial (AIFM1) (human) (UniProt O95831)
Assay: cross-linking; sulfo-SDA (0.5 mM) photo-cross-linking of AIFM1 at 1 mg/ml, pre-incubated on ice with 1 mM NADH for 1 h to induce dimerization; 10 mM HEPES-NaOH pH 7.8, 150 mM NaCl, 4 mM MgCl2, 0.5 mM TCEP; UVEN UV activation 0-180 s; SDS-PAGE, and LC-MS/MS of the 32-s sample

stoichiometry N: 2
Substance: apoptosis-inducing factor, mitochondrial (AIFM1) (from UniProt O95831 103-613) (natural protein)
